Results from patent publication US20250027945A1 (University of California, published 2025).

Legend:
[1] = target: T1, human RYK on the surface of human tumor cell lines (human, UniProt P34925 46-607); assay: flow cytometry, NCI H226 cells (lung), 5 ug/ml 2-D11-Alexa647
T1 construct: whole, on cells; Endogenous expression
Description: (§1) Table 1 provides the flow cytometry data on various cancer cell lines stained with fluorochrome-conjugated 2-D11, as depicted in FIG. 8. The name of each cell line is listed in the first column and the tissue of origin is listed in the second column. Binding of the 2-D11 mAb to human RYK was assessed by flow cytometric staining and analysis by staining on ice for 20 minutes with 5 μg/ml of 2-D11 anti-human RYK-Alexa647 conjugated mAb or equal amounts of isotype matched control mAb, washed, and analyzed. The median fluorescence intensity (MFI) of 2-D11 stained cells is listed in the middle column and the MFI of isotype control stained cells are listed in the in the adjacent column. Cell lines were scored as “++”, “+”, or neg (unmarked with “+”) lines based on the ratio of median fluorescence intensity (MFI) of stained cells relative to the MFI of isotype control stained cells (MFIR).
(§2) The name of each cell line is listed in the first column and the tissue of origin is listed in the second column. Binding of the 2-D11 mAb to human RYK was assessed by flow cytometric staining and analysis by staining on ice for 20 minutes with 5 μg/ml of 2-D11 anti-human RYK-Alexa647 conjugated mAb or equal amounts of isotype matched control mAb, washed and analyzed. […]

[2] = target: T1, human RYK on the surface of human tumor …; assay: flow cytometry, RAMOS cells (Burkitt NHL), 5 ug/ml 2-D11-Alexa647; line unmarked (no staining)
Description: as §1, §2

[3] = target: T2, recombinant extracellular protein of mouse RYK (mouse, UniProt Q01887 35-211); assay: immunoblot of recombinant extracellular protein on nylon membrane
T2 construct: also called mRYK; not shown: rabbit IgG tag for purification
T2 sequence (Q01887 35-211): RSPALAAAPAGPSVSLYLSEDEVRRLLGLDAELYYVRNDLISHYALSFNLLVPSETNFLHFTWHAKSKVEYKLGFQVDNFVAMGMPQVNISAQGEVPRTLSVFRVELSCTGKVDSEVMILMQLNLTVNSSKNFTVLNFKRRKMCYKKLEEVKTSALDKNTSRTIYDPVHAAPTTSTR
Description: FIG. 4A illustrates experiments in which binding of 2-D11, 7-H10, 3-C12, 11-E9, 6-B5, 6-D10 and sheep anti-RYK mAb was assessed using recombinant human RYK proteins (SEQ ID NO:129) in which one amino acid that differs between human and mouse RYK within the extracellular domain was replaced with the corresponding amino acid of mouse RYK. Each recombinant protein was transferred onto nylon membrane, probed with the indicated anti-RYK mAb or Sheep anti-RYK Ab, and detected with an anti-mouse IgG or donkey-anti-sheep antibody conjugated with horse radish peroxidase. […]
The anti-human RYK mAbs, 2-D11 and 7-H10, appear specific for an amino terminal epitope of human Ryk (residues 46-57) that are distinct from those in mouse Ryk (FIG. 3); these mAbs also bind mutant forms of Ryk containing amino acid substitutions in human Ryk at positions that differ from that of the highly homologous mouse Ryk to assimilate mouse Ryk at the site of substitution, with amino acid sequence shown in FIG. 3, as shown by immunoblot analyses of recombinant extracellular proteins of human or mouse or each of the various mutant forms of human Ryk (FIG. 4) For this, the binding of 2-D11, 7-H10, or Sheep anti-RYK mAb was assessed using recombinant extracellular RYK proteins as specified in the Key. […]

[4] = target: T1, human RYK on the surface of human tumor …; assay: flow cytometry, A549 cells (lung), 5 ug/ml 2-D11-Alexa647
Description: as §1, §2

[5] = target: T1, human RYK on the surface of human tumor …; assay: flow cytometry, U937 cells (monocyte cancer), 5 ug/ml 2-D11-Alexa647; line unmarked (no staining)
Description: as §1, §2

[6] = target: T1, human RYK on the surface of human tumor …; assay: flow cytometry, EW36 cells (NHL), 5 ug/ml 2-D11-Alexa647; line unmarked (no staining)
Description: as §1, §2

[7] = target: T1, human RYK on the surface of human tumor …; assay: flow cytometry, MINO cells (mantle), 5 ug/ml 2-D11-Alexa647
Description: as §1, §2

[8] = target: T1, human RYK on the surface of human tumor …; assay: flow cytometry, SK-OV-3 cells (ovarian), 5 ug/ml 2-D11-Alexa647; line unmarked (no staining)
Description: as §1, §2

[9] = target: T1, human RYK on the surface of human tumor …; assay: flow cytometry, H292 cells (lung), 5 ug/ml 2-D11-Alexa647; line unmarked (no staining)
Description: as §1, §2

T1 sequence (P34925 46-607 limits assumed, form in doubt): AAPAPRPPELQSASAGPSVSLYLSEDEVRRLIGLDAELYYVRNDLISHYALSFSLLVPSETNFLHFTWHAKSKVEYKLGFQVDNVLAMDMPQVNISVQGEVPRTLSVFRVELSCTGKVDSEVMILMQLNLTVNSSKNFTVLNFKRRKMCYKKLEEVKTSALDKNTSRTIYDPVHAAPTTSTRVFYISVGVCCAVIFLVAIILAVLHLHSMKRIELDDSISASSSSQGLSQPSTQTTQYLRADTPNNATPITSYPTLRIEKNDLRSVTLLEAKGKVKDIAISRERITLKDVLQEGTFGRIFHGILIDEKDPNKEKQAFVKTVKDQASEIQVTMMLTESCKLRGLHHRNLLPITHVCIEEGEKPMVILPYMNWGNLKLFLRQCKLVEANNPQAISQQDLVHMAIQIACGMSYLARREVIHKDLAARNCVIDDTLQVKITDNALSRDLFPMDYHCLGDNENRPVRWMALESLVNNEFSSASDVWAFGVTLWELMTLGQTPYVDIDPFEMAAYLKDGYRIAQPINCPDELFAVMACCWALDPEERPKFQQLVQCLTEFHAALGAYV

MFIR (MFI ratio to isotype control) [1]: 2
MFIR (MFI ratio to isotype control) [2]: 1.1
binding result [3]: no binding
MFIR (MFI ratio to isotype control) [4]: 1.5
MFIR (MFI ratio to isotype control) [5]: 1.2
MFIR (MFI ratio to isotype control) [6]: 1.1
MFIR (MFI ratio to isotype control) [7]: 2
MFIR (MFI ratio to isotype control) [8]: 1.1
MFIR (MFI ratio to isotype control) [9]: 1.3
B1: 2-D11 anti-human RYK mAb (antibody, V domains shown)
VH: QVQLKESGPGLVAPSQSLSITCSVSGFSLNDYGVNWVRQPPGKDLEWLGMIWGDGVTEYNSTLKSRLSISKDNSKSQVFLKMNNLQTEDTARYYCVRQGSGVWFAHWGQGTLVSVSS
VL: DVLVTQTPLSLPVSLGDQASISCRSSQTIVHSNGNTYLEWYLQKPGQSPKLLIYKVSNRFSGVPDRFSGSGSGTDFTLKISRVEAEDLGIYYCFQGSHVPYTFGGGTKLEIK
notes: Mouse hybridoma mAb, kappa light chain, detected with anti-mouse IgG; also called mAb 2-D11; 2-D11 anti-human RYK-Alexa647 conjugated mAb
